Laboratory results taken from the supplement of paper PMC10567573.

B1: IQUB (parent)
chain: CRNCINLQNEAQKRESFLKYKCLL
B2: IQUB (parent)
chain: KIREKEEWIKLDYHRRHNPKTNED

Variants of: B1
Test: protein stability index of a GFP-peptide fusion (GPS, HEK-293T) (PSI 1-6); higher = more stable
Settings: c terminus: a fixed tail appended
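Also: lentivirally expressed fusions sorted by FACS into six bins by GFP to DsRed ratio, PSI derived from sequencing read proportions per bin multiplied by bin number.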

Protein stability index, by site and new letter:
I5: D 2.05 | A 1.79 | C 1.64
C1: M 1.91 | V 2.78 | S 1.9 | G 2.13 | R 1.94 | Q 2.01 | I 1.41 | L 1.72 | F 1.5 | D 2.28 | A 2.36 | H 2.23 | N 2.33 | W 2.08 | Y 1.86 | K 1.9 | T 2.66 | E 1.87 | P 2.19
C4: L 1.53 | N 1.93 | D 1.98 | E 1.41 | K 2.15 | T 1.69 | V 1.92 | F 2.15 | S 1.51 | R 3.13 | I 2.28 | M 2.12 | Y 2.51 | G 1.85 | W 1.41 | A 2.02 | H 1.74 | P 2 | Q 2.13
R2: M 1.89 | D 2.3 | K 1.92 | V 1.41 | Q 1.53 | W 1.98 | S 1.86 | G 1.28 | E 2.23 | L 1.93 | Y 1.64 | F 1.89 | I 1.45 | C 1.66 | P 2.25 | H 2.56 | T 1.93 | A 1.95 | N 2.22
N3: F 1.83 | W 1.68 | M 1.08 | I 2.71 | R 1.76 | L 1.91 | A 2.14 | Q 2.7 | H 1.99 | P 1.92 | C 1.61 | T 3.29 | V 1.7 | G 1.76 | D 1.92 | E 1.37 | Y 1.76 | K 1.9 | S 2.59

Variants of: B2
Test: as above
Settings: c terminus: a fixed tail appended

Protein stability index, by site and new letter:
L11: Q 5.37 | K 4.71 | G 4.64 | C 4.52 | F 4.33 | H 4.66 | T 5.2 | N 5.15 | E 4.32 | W 4.13 | S 5.23 | P 4.78 | D 4.93 | I 3.78 | Y 4.81 | R 5.29 | M 4.71 | V 4.55
N18: C 3.99 | F 4 | K 4.46 | E 4.48 | D 4.86 | V 4.32 | S 4.91 | Y 3.71 | G 4.93 | Q 3.97 | H 4.27 | I 4.19 | R 4.31 | L 3.79 | P 4.89 | M 4.42 | T 4.27 | A 4.32
R16: C 4.52 | V 3.62 | G 4.74 | A 4.54 | M 4.63 | F 3.7 | D 3.61 | N 4.91 | S 5.12 | L 3.86 | H 4.4 | P 4.75 | I 4.38 | W 4.22 | E 5.2 | Y 4.31 | Q 5.08 | T 4.94 | K 3.6
H14: K 3.87 | G 4.88 | Q 5.02 | T 4.5 | A 4.8 | Y 4.41 | V 4.24 | C 4.46 | E 3.72 | D 5.35 | I 4.58 | R 4.58 | F 4.34 | P 4.51 | S 4.61 | W 3.73 | N 4.89 | L 4.1
D24: Q 4.13 | P 3.66 | S 4.27 | L 3.53 | N 4.32 | K 4.42 | C 3.29 | I 3.83 | T 4.16 | W 3.02 | Y 3.65 | F 3.27 | A 3.91 | R 3.89 | G 3.72 | V 3.21 | M 3.88 | H 4.04
K20: E 5.2 | Y 4.03 | N 4.21 | C 4.27 | M 4.53 | V 4.72 | T 4.64 | Q 4.39 | W 3.08 | A 4.52 | H 4.64 | S 4.81 | F 2.51 | R 4.66 | D 4.65 | I 4.37 | P 5.07 | G 4.84
N22: L 4.2 | M 4.29 | C 4.85 | R 4.03 | S 4.72 | Y 4.01 | W 2.8 | P 4.36 | V 4.15 | G 4.79 | K 4.29 | T 4.6 | A 4.27 | F 3.84 | I 4.01 | H 4.22 | Q 4.66 | D 4.7
H17: Q 5.08 | N 4.16 | Y 3.99 | C 4.16 | V 4.87 | A 4.71 | M 4.21 | S 4.83 | F 4.41 | E 4.11 | R 4.51 | D 5.08 | T 4.57 | P 5.17 | I 4.5 | L 4.67 | G 4.97 | K 4.23
Y13: R 5.28 | A 4.36 | I 3.95 | W 4.18 | P 4.51 | H 4.87 | N 5.41 | L 4.8 | D 5.04 | V 4.64 | K 5.3 | C 4.33 | M 4.76 | Q 5.04 | G 4.99 | S 5.11 | T 4.49 | E 5.18 | F 4.51
E23: F 4.45 | R 3.72 | A 4.52 | T 4.54 | N 4.24 | S 4.25 | G 4.44 | C 3.91 | I 4.13 | M 4.17 | V 4.18 | H 4.18 | L 4.17 | D 5.01 | W 5.01 | P 4.28 | Q 4.06 | Y 3.77
R15: G 4.83 | D 5.33 | V 4.97 | C 3.89 | Y 4.08 | N 4.39 | H 4.36 | A 5.05 | M 4.3 | P 4.17 | K 4.64 | I 4.29 | F 4.23 | E 4.46 | Q 3.98 | W 4.16 | T 4.76 | L 4.49 | S 5.22
D12: P 4.41 | Y 3.62 | I 3.28 | G 4.51 | W 3.79 | K 4.54 | H 4.41 | S 3.59 | M 3.7 | A 4.07 | C 3.93 | Q 4.55 | F 4.01 | N 3.92 | E 4.27 | R 4.21 | L 3.79 | T 3.79 | V 3.65
T21: V 4.46 | N 4.75 | E 4.6 | S 4.76 | Y 4.52 | A 5.18 | C 4.57 | D 4.79 | P 4.74 | Q 4.75 | M 4.1 | K 5.05 | G 5.12 | L 4.13 | I 4.33 | R 4.82 | W 3.77 | H 4.08 | F 4.53
P19: A 4.59 | G 4.46 | K 4.95 | N 5.13 | H 4.3 | Q 4.68 | C 4.61 | L 3.91 | S 4.99 | E 4.65 | I 4.92 | M 4.71 | Y 4.06 | D 4.77 | T 4.49 | W 4.33
